Values quoted from earlier work as cited in paper PMC8538444.

Target: SP-BN N-terminal saposin-like segment of the SP-B proprotein (Homo sapiens) (UniProt P07988)
Chain of UniProt P07988 (P07988 65-147): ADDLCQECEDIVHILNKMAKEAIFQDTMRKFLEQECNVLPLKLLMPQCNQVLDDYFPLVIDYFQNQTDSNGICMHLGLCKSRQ

Kd: 400 nM
Substance: SP-A (from UniProt Q8IWL2)
